Data from US6030776.
pKi: −log10 of the molar value.

Experiments:
[1] = target: N-bromoacetyl-bradykinin (BrBK) (UniProt P01042); settings: 5' guanosine monophosphorothioate (GMPS); 100-fold reduction in Km vs bulk 30N1 pool, 67-fold higher kcat, 6700-fold higher kcat/Km; thioether bond formation assayed on APM gel
[2] = target: des-Arg9-bradykinin lacks carboxy-terminal Arg9 (UniProt P01042); experiment: inhibition; settings: 5' guanosine monophosphorothioate (GMPS); inhibition of reaction of 12.1 with BrBK; about 18-fold weaker than BK
[3] = target: bradykinin (native BK peptide) (UniProt P01042); experiment: inhibition; settings: 5' guanosine monophosphorothioate (GMPS); inhibition of reaction of 12.1 with BrBK; nearly identical to Km of the uninhibited reaction

AGGCUUCGACAAACGCUCAAAGCUGUUGGCAGCGCUGGUGAAGGGAUGGC [reactant 12.1 GMPS-RNA]
fold reduction in Km vs starting pool [1]: 100 fold
pKi [2]: 2.59
pKi [3]: 3.85
